US20250027071A1
Like-named read-outs stand apart in the source and are kept apart here. Blank lines part the entries; values can stand above or below the molecule they belong to.

Assays:
Aβ (1-40) peptide [1] = test system: Aβ (1-40) peptide
[2] = test system: TGFBIp G623R peptide (23-amino acid peptide from the 4th FAS1 domain of TGFBIp with the substitution G623R)
[3] = molecular target: TGFBIp G623R peptide (23-amino acid peptide from the 4th FAS1 domain of TGFBIp with the substitution G623R); assay: cell-based or functional assay
Aβ (1-40) peptide [4] = assay: cell-based or functional assay
[5] = molecular target: TGFBIp G623R peptide (23-amino acid peptide from the 4th FAS1 domain of TGFBIp with the substitution G623R); assay: cell-based or functional assay; remark: listed apart in the source

- ThT fluorescence intensity relative to the G623R control after 48 h (fibrillation inhibition assay, 10 µM L-PGDS : 50 µM monomeric peptide) [3]: 102%
Molecule: C65A L-PGDS (C65A single mutant of truncated L-PGDS) (enzyme)

- ThT fluorescence relative to Aβ (1-40) control (inhibitory assay, 24 h) (Aβ (1-40) peptide [4]): 96.1%
- ThT fluorescence intensity relative to the G623R control after 48 h (fibrillation inhibition assay, 10 µM L-PGDS : 50 µM monomeric peptide) [3]: 51.4%
Molecule: RA L-PGDS (K58R+C65A double mutant of truncated L-PGDS) (enzyme)

Second part, the molecule before the results:

Molecule: RA L-PGDS (K58R+C65A double mutant of truncated L-PGDS)
- ThT disaggregation assay of mature Aβ (1-40) fibrils, 24 h (Aβ (1-40) peptide [1]): significant (p<0.05) retention of disaggregation activity across all L-PGDS mutants after 24 h of incubation
- ThT fluorescence relative to untreated G623R fibrils after 48 h (disaggregation assay, 10 µM L-PGDS : 50 µM fibrils) [2]: 72.78%±20.42% (SD)
- fibril length from TEM micrographs after disaggregation treatment [2]: RA-L-PGDS treatment did indeed produce shorter fibrils as opposed to WT L-PGDS
- ThT assay of Tau VK26 aggregation (100 µM peptide with 5 µM or 10 µM RA L-PGDS) (Tau peptide VK26): RA L-PGDS almost completely inhibited the aggregation of the Tau protein

Molecule: C65A L-PGDS (C65A single mutant of truncated L-PGDS)
- ThT disaggregation assay of mature Aβ (1-40) fibrils, 24 h (Aβ (1-40) peptide [1]): significant (p<0.05) retention of disaggregation activity across all L-PGDS mutants after 24 h of incubation
- ThT fluorescence relative to untreated G623R fibrils after 48 h (disaggregation assay, 10 µM L-PGDS : 50 µM fibrils) [2]: 70.56%±8.18% (SD)

B1: truncated human wild-type Lipocalin-type prostaglandin D synthase (L-PGDS) (enzyme, UniProt P41222 23-190, looked up)
Prostaglandin-H2 D-isomerase: APEAQVSVQPNFQQDKFLGRWFSAGLASNSSWLREKKAALSMCKSVVAPATDGGLNLTSTFLRKNQCETRTMLLQPAGSLGSYSYRSPHWGSTYSVSVVETDYDQYALLYSQGSKGPGEDFRMATLYSRTQTPRAELKEKFTAFCKAQGFTEDTIVFLPQTDKCMTEQ
modifications: C-terminal His6 tag
- ThT disaggregation assay of mature Aβ (1-40) fibrils, 24 h (Aβ (1-40) peptide [1]): significant (p<0.05) retention of disaggregation activity across all L-PGDS mutants after 24 h of incubation
- ThT fluorescence relative to untreated G623R fibrils after 48 h (disaggregation assay, 10 µM L-PGDS : 50 µM fibrils) [2]: 68.78%±18.20% (SD)
- ThT fluorescence intensity relative to the G623R control after 48 h (fibrillation inhibition assay, 10 µM L-PGDS : 50 µM monomeric peptide) [5]: 52.5%
